Measured values published in the supplement of paper PMC11246515.
± gives the standard deviation of the averaged measurements.

Experiment: total protein half-life in vivo (active degradation + dilution); higher = more stable protein
[1] = E. coli NCM3722 delta-clpP delta-lon delta-hslV, growth: N-lim chemostat, doubling time 6 h
[2] = E. coli NCM3722 delta-lon, growth: N-lim chemostat, doubling time 6 h
[3] = E. coli NCM3722 delta-smpB, growth: N-lim chemostat, doubling time 6 h
[4] = wild type E. coli NCM3722, growth: C-lim chemostat, doubling time 3 h
[5] = wild type E. coli NCM3722, growth: C-lim chemostat, doubling time 6 h
[6] = wild type E. coli NCM3722, growth: C-lim chemostat, doubling time 12 h
[7] = wild type E. coli NCM3722, growth: N-lim chemostat, doubling time 6 h
[8] = wild type E. coli NCM3722, growth: N-lim chemostat, doubling time 12 h
[9] = wild type E. coli NCM3722, growth: P-lim chemostat, doubling time 6 h
[10] = wild type E. coli NCM3722, growth: P-lim chemostat, doubling time 12 h
[11] = E. coli NCM3722 delta-clpP, growth: N-lim chemostat, doubling time 6 h
[12] = E. coli NCM3722 delta-hslV, growth: N-lim chemostat, doubling time 6 h

Sequence	total protein half-life in vivo [1]	total protein half-life in vivo [2]	total protein half-life in vivo [3]	total protein half-life in vivo [4]	total protein half-life in vivo [5]	total protein half-life in vivo [6]	total protein half-life in vivo [7]	total protein half-life in vivo [8]	total protein half-life in vivo [9]	total protein half-life in vivo [10]	total protein half-life in vivo [11]	total protein half-life in vivo [12]
MDQKLLTDFRSELLDSRFGAKAISTIAESKRFPLHEMRDDVAFQIINDELYLDGNARQNLATFCQTWDDENVHKLMDLSINKNWIDKEEYPQSAAIDLRCVNMVADLWHAPAPKNGQAVGTNTIGSSEACMLGGMAMKWRWRKRMEAAGKPTDKPNLVCGPVQICWHKFARYWDVELREIPMRPGQLFMDPKRMIEACDENTIGVVPTFGVTYTGNYEFPQPLHDALDKFQADTGIDIDMHIDAASGGFLAPFVAPDIVWDFRLPRVKSISASGHKFGLAPLGCGWVIWRDEEALPQELVFNVDYLGGQIGTFAINFSRPAGQVIAQYYEFLRLGREGYTKVQNASYQVAAYLADEIAKLGPYEFICTGRPDEGIPAVCFKLKDGEDPGYTLYDLSERLRLRGWQVPAFTLGGEATDIVVMRIMCRRGFEMDFAELLLEDYKASLKYLSDHPKLQGIAQQNSFKHT	5.86 ± 0.071 h	5.71 ± 0.19 h	5.91 ± 0.41 h	3.71 h	6.55 ± 0.6 h	> 16 h	5.53 h	9.35 ± 0.68 h	6.024 ± 0.042 h	12.1 ± 1.2 h		
MDQTYSLESFLNHVQKRDPNQTEFAQAVREVMTTLWPFLEQNPKYRQMSLLERLVEPERVIQFRVVWVDDRNQIQVNRAWRVQFSSAIGPYKGGMRFHPSVNLSILKFLGFEQTFKNALTTLPMGGGKGGSDFDPKGKSEGEVMRFCQALMTELYRHLGADTDVPAGDIGVGGREVGFMAGMMKKLSNNTACVFTGKGLSFGGSLIRPEATGYGLVYFTEAMLKRHGMGFEGMRVSVSGSGNVAQYAIEKAMEFGARVITASDSSGTVVDESGFTKEKLARLIEIKASRDGRVADYAKEFGLVYLEGQQPWSLPVDIALPCATQNELDVDAAHQLIANGVKAVAEGANMPTTIEATELFQQAGVLFAPGKAANAGGVATSGLEMAQNAARLGWKAEKVDARLHHIMLDIHHACVEHGGEGEQTNYVQGANIAGFVKVADAMLAQGVI	3.53 ± 0.36 h	2.13 ± 0.14 h	2.14 ± 0.08 h	2.94 ± 0.19 h	4.66 ± 0.28 h	7.29 ± 0.52 h	1.88 ± 0.073 h	2.61 ± 0.4 h	5.35 ± 0.14 h	9.48 ± 0.6 h	1.97 ± 0.1 h	1.8 ± 0.11 h
MDRIIQSPGKYIQGADVINRLGEYLKPLAERWLVVGDKFVLGFAQSTVEKSFKDAGLVVEIAPFGGECSQNEIDRLRGIAETAQCGAILGIGGGKTLDTAKALAHFMGVPVAIAPTIASTDAPCSALSVIYTDEGEFDRYLLLPNNPNMVIVDTKIVAGAPARLLAAGIGDALATWFEARACSRSGATTMAGGKCTQAALALAELCYNTLLEEGEKAMLAAEQHVVTPALERVIEANTYLSGVGFESGGLAAAHAVHNGLTAIPDAHHYYHGEKVAFGTLTQLVLENAPVEEIETVAALSHAVGLPITLAQLDIKEDVPAKMRIVAEAACAEGETIHNMPGGATPDQVYAALLVADQYGQRFLQEWE [P0A9S5]	4.72 ± 0.17 h	4.432 ± 0.034 h	3.52 ± 0.49 h	3.07 ± 0.084 h	5.75 ± 0.4 h	11.7 ± 0.7 h	4.8 ± 0.91 h	6.5 ± 0.44 h	6.33 ± 0.13 h	13 ± 0.35 h	4.2 ± 0.78 h	4.13 ± 0.15 h
MDRVLHFVLALAVVAILALLVSSDRKKIRIRYVIQLLVIEVLLAWFFLNSDVGLGFVKGFSEMFEKLLGFANEGTNFVFGSMNDQGLAFFFLKVLCPIVFISALIGILQHIRVLPVIIRAIGFLLSKVNGMGKLESFNAVSSLILGQSENFIAYKDILGKISRNRMYTMAATAMSTVSMSIVGAYMTMLEPKYVVAALVLNMFSTFIVLSLINPYRVDASEENIQMSNLHEGQSFFEMLGEYILAGFKVAIIVAAMLIGFIALIAALNALFATVTGWFGYSISFQGILGYIFYPIAWVMGVPSSEALQVGSIMATKLVSNEFVAMMDLQKIASTLSPRAEGIISVFLVSFANFSSIGIIAGAVKGLNEEQGNVVSRFGLKLVYGSTLVSVLSASIAALVL [P0AFF2]	7.07 ± 0.54 h	5.82 ± 0.35 h	6.04 ± 0.57 h	3.61 ± 0.038 h	6.32 ± 0.029 h		6.36 ± 0.65 h	9.54 ± 3.4 h	5.57 h	13 ± 0.8 h	6.45 ± 0.078 h	6.09 ± 0.15 h
MDSIHGHEVLNMMIESGEQYTHASLEAAIKARFGEQARFHTCSAEGMTAGELVAFLAAKGKFIPSKDGFSTDQSKICRH					5.53 h							
MDSLNLNKHISGQFNAELESIRTQVMTMGGMVEQQLSDAITAMHNQDSDLAKRVIEGDKNVNMMEVAIDEACVRIIAKRQPTASDLRLVMVISKTIAELERIGDVADKICRTALEKFSQQHQPLLVSLESLGRHTIQMLHDVLDAFARMDIDEAVRIYREDKKVDQEYEGIVRQLMTYMMEDSRTIPSVLTALFCARSIERIGDRCQNICEFIFYYVKGQDFRHVGGDELDKLLAGKDSDK [P0A9K7]	4.61 ± 0.4 h	4.81 ± 0.26 h	4.01 ± 0.1 h	2.88 ± 0.12 h	5.04 ± 0.29 h	9.47 ± 0.65 h	4.09 ± 0.23 h	6.41 ± 0.26 h	5.17 ± 0.13 h	10.8 ± 0.029 h	4.64 ± 0.5 h	4.2 ± 0.34 h
